Results: patent publication US20230192896A1 (published 2023)

Target: free FIXa (activated Factor IX) (UniProt P00740 47-191; P00740 227-461)
Assay: BLI

Binder | Kd [nM]
BIIB-9-573 (antibody, V domains shown) VH: QLQLQESGPGLVKPSETLSLTCTVSGGSISSSSYYWGWIRQPPGKGLEWIGSIYYSGSTYYNPSLKSRVTISVDTSKNQFSLKLSSVTAADTAVYYCARESKTKGYLDLWGRGTLVTVSS VL: EIVLTQSPGTLSLSPGERATLSCRASQSVSSSFLAWYQQKPGQAPRLLIYGASSRATGIPDRFSGSGSGTDFTLTISRLEPEDFAVYYCQQSHSPPYTFGGGTKVEIK | 8.58
BIIB-9-439 (antibody, V domains shown) VH: QVQLVQSGAEVKKPGASVKVSCKASGYTFTSYYMHWVRQAPGQGLEWMGIINPSGGSTTYAQKFQGRVTMTRDTSTSTVYMELSSLRSEDTAVYYCAREATESYYYMDVWGKGTTVTVSS VL: EIVMTQSPATLSLSPGERATLSCRASQSVSSYLAWYQQKPGQAPRLLIYDSSNRATGIPARFSGSGSGTDFTLTISSLEPEDFAVYYCQQRDNWPFTFGGGTKVEIK | 15.6
BIIB-9-888 (antibody, V domains shown) VH: QVQLVQSGAEVKKPGASVKVSCKASGYTFTSYYMHWVRQAPGQGLEWMGIINPSGGSTSYAQKFQGRVTMTRDTSTSTVYMELSSLRSEDTAVYYCARGPTDSSGYLDMDVWGKGTTVTVSS VL: EIVMTQSPATLSVSPGERATLSCRASQSVSSNLAWYQQKPGQAPRLLIYGASTRATGIPARFSGSGSGTEFTLTISSLQPEDFAVYYCQQAFNWPPTFGGGTKVEIK | 65.6
BIIB-9-587 (antibody, V domains shown) VH: QVQLVQSGAEVKKPGASVKVSCKASGYTFTSYYMHWVRQAPGQGLEWMGIINPSGGSTSYAQKFQGRVTMTRDTSTSTVYMELSSLRSEDTAVYYCARGPPGYEYYMDVWGKGTTVTVSS VL: DIQMTQSPSSVSASVGDRVTITCRASQGISSWLAWYQQKPGKAPKLLIYAASSLQSGVPSRFSGSGSGTDFTLTISSLQPEDFATYYCQQADSFPFTFGGGTKVEIK | 11.8
BIIB-9-885 (antibody, V domains shown) VH: QVQLVQSGAEVKKPGASVKVSCKASGYTFTSYYMHWVRQAPGQGLEWMGIINPSGGSTSYAQKFQGRVTMTRDTSTSTVYMELSSLRSEDTAVYYCAREGPMLDYPTYSNWFDPWGQGTLVTVSS VL: EIVLTQSPATLSLSPGERATLSCRASQSVSSYLAWYQQKPGQAPRLLIYDASKRATGIPARFSGSGSGTDFTLTISSLEPEDFAVYYCQQRVIWPPTFGGGTKVEIK | 0.804
BIIB-9-1267 (antibody, V domains shown) VH: QVQLVQSGAEVKKPGASVKVSCKASGYTFTSYYMHWVRQAPGQGLEWMGIINPSGGSTSYAQKFQGRVTMTRDTSTSTVYMELSSLRSEDTAVYYCARDHGWAIYGMDVWGQGTTVTVSS VL: not shown | 15.6
BIIB-9-445 (antibody, V domains shown) VH: QVQLVQSGAEVKKPGASVKVSCKASGYTFTSYYIHWVRQAPGQGLEWMGIINPSGGSTSYAQKFQGRVTMTRDTSTSTVYMELSSLRSEDTAVYYCARDVGQDYWFDLWGRGTLVTVSS VL: EIVMTQSPATLSVSPGERATLSCRASQSVSSNLAWYQQKPGQAPRLLIYSASTRATGIPARFSGSGSGTEFTLTISSLQSEDFAVYYCQQYDNFPFTFGGGTKVEIK | 20.2
BIIB-9-1281 (antibody, V domains shown) VH: QVQLQQWGAGLLKPSETLSLTCAVYGGSFSGYYWSWIRQPPGKGLEWIGEIDHSGSTNYNPSLKSRVTISVDTSKNQFSLKLSSVTAADTAVYYCARTTRSKYYGMDVWGQGTMVTVSS VL: DIQMTQSPSTLSASVGDRVTITCRASQSISSWLAWYQQKPGKAPKLLIYKASSLESGVPSRFSGSGSGTDFTLTISSLQPEDFATYYCQQAISLPITFGGGTKVEIK | 16.8
BIIB-9-887 (antibody, V domains shown) VH: QVQLVQSGAEVKKPGASVKVSCKASGYTFTSYYMVWVRQAPGQGLEWMGIINPSGGSTSYAQKFQGRVTMTRDTSTSTVYMELSSLRSEDTAVYYCARDAEAHWIPGMDVWGQGTTVTVSS VL: DIQMTQSPSSVSASVGDRVTITCRASQGISSWLAWYQQKPGKAPKLLIYAASSLQSGVPSRFSGSGSGTDFTLTISSLQPEDFATYYCQQASSFPFTFGGGTKVEIK | 6.1
BIIB-9-479 (antibody, V domains shown) VH: QVQLQESGPGLVKPSETLSLTCTVSGGSISSYYWSWIRQPPGKGLEWIGSIYYSGSTNYNPSLKSRVTISVDTSKNQFSLKLSSVTAADTAVYYCAREHYGDYPLFDIWGQGTMVTVSS VL: DIQMTQSPSTLSASVGDRVTITCRASQSISSWLAWYQQKPGKAPKLLIYKASSLESGVPSRFSGSGSGTEFTLTISSLQPDDFATYYCQQYRILSPTFGGGTKVEIK | 58.3
BIIB-9-1279 (antibody, V domains shown) VH: QVQLVQSGAEVKKPGASVKVSCKASGYTFTSYYMHWVRQAPGQGLEWMGIINPSGGSTSYAQKFQGRVTMTRDTSTSTVYMELSSLRSEDTAVYYCARGPTDSSGYLDMDVWGKGTTVTVSS VL: DIQMTQSPSSVSASVGDRVTITCRASQGISSWLAWYQQKPGKAPKLLIYAASSLQSGVPSRFSGSGSGTDFTLTISSLQPEDFATYYCQQASSFPPTFGGGTKVEIK | 40.9
BIIB-9-607 (antibody, V domains shown) VH: QLQLQESGPGLVKPSETLSLTCTVSGGSISSSSYYWGWIRQPPGKGLEWIGSISYSGSTYYNPSLKSRVTISVDTSKNQFSLKLSSVTAADTAVYYCARDRGYSYEDFDLWGRGTLVTVS VL: DIQMTQSPSTLSASVGDRVTITCRASQSISSWLAWYQQKPGKAPKLLIYKASSLESGVPSRFSGSGSGTEFTLTISSLQPDDFATYYCQQAGRYPLTFGGGTKVEIK | 6.57
BIIB-9-581 (antibody, V domains shown) VH: QVQLVQSGAEVKKPGASVKVSCKASGYTFTSYYMHWVRQAPGQGLEWMGIINPSGGSTSYAQKFQGRVTMTRDTSTSTVYMELSSLRSEDTAVYYCARDPLYYREGYVFDYWGQGTLVTVSS VL: DIQMTQSPSSLSASVGDRVTITCRASQSISSYLNWYQQKPGKAPKLLIYAASSLQSGVPSRFSGSGSGTDFTLTISSLQPEDFATYYCQQSDLFPFTFGGGTKVEIK | 12.9
BIIB-9-605 (antibody, V domains shown) VH: not shown VL: DIQMTQSPSSVSASVGDRVTITCRASQGISSWLAWYQQKPGKAPKLLIYAASSLQSGVPSRFSGSGSGTDFTLTISSLQPEDFATYYCQQADVFPFTFGGGTKVEIK | 8.63
BIIB-9-461 (antibody, V domains shown) VH: QVQLVQSGAEVKKPGASVKVSCKASGYTFTSYYMHWVRQAPGQGLEWMGIINPSGGSTSYAQKFQGRVTMTRDTSTSTVYMELSSLRSEDTAVYYCARGPTDSSGYLDMDVWGKGTTVTVSS VL: EIVMTQSPATLSVSPGERATLSCRASQSVSSSLAWYQQKPGQAPRLLIYGASTRATGIPARFSGSGSGTEFTLTISSLQSEDFAVYYCQQHHHWPPTFGGGTKVEIK | 43.1
BIIB-9-1278 (antibody, V domains shown) VH: QVQLVQSGAEVKKPGASVKVSCKASGYTFTSYYMVWVRQAPGQGLEWMGIINPSGGSTSYAQKFQGRVTMTRDTSTSTVYMELSSLRSEDTAVYYCARGPGELGYYLAFDIWGQGTMVTVSS VL: EIVMTQSPATLSVSPGERATLSCRASQSVSSNLAWYQQKPGQAPRLLIYGASTRATGIPARFSGSGSGTEFTLTISSLQSEDFAVYYCQQHANFPPTFGGGTKVEIK | 66.2
BIIB-9-611 (antibody, V domains shown) VH: QVQLVQSGAEVKKPGASVKVSCKASGYTFTSYYMHWVRQAPGQGLEWMGIINPSGGSTSYAQKFQGRVTMTRDTSTSTVYMELSSLRSEDTAVYYCAREVISRVSYFDLWGRGTLVTVSS VL: EIVMTQSPATLSVSPGERATLSCRASQSVSSNLAWYQQKPGQAPRLLIYGASTRATGIPARFSGSGSGTEFTLTISSLQSEDFAVYYCQQDNIHPYTFGGGTKVEIK | 18.6
BIIB-9-592 (antibody, V domains shown) VH: QLQLQESGPGLVKPSETLSLTCTVSGGSISSNSYYWGWIRQPPGKGLEWIGSIYYSGSTYYNPSLKSRVTISVDTSKNQFSLKLSSVTAADTAVYYCARDSNYDSSGYALYYYGMDVWGQGTTVTVSS VL: not shown | 21.7
BIIB-9-1264 (antibody, V domains shown) VH: QVQLVQSGAEVKKPGASVKVSCKASGYTFTSYYMHWVRQAPGQGLEWMGIINPSGGSTSYAQKFQGRVTMTRDTSTSTVYMELSSLRSEDTAVYYCARDGDSSVYAFDYWGQGTLVTVSS VL: DIQMTQSPSSLSASVGDRVTITCQASQDITNYLNWYQQKPGKAPKLLIYDASNLETGVPSRFSGSGSGTDFTFTISSLQPEDIATYYCQQVDDYPFTFGGGTKVEIK | 14.9
BIIB-9-569 (antibody, V domains shown) VH: QVQLVQSGAEVKKPGASVKVSCKASGYTFTSYYMHWVRQAPGQGLEWMGIINPSGGSTSYAQKFQGRVTMTRDTSTSTVYMELSSLRSEDTAVYYCARDGSGYSPYSFDPWGQGTLVTVSS VL: DIQMTQSPSSLSASVGDRVTITCQASQDISNYLNWYQQKPGKAPKLLIYDASNLATGVPSRFSGSGSGTDFTFTISSLQPEDIATYYCQQADDFPFTFGGGTKVEIK | 7.05
BIIB-9-883 (antibody, V domains shown) VH: QVQLVQSGAEVKKPGASVKVSCKASGYTFTSYYMHWVRQAPGQGLEWMGIINPSGGSTSYAQKFQGRVTMTRDTSTSTVYMELSSLRSEDTAVYYCARDGRLSYTWDRWGQGTLVTVSS VL: DIQMTQSPSSLSASVGDRVTITCQASQDITNYLNWYQQKPGKAPKLLIYDASNLETGVPSRFSGSGSGTDFTFTISSLQPEDIATYYCQQADHFPFTFGGGTKVEIK | 17.5
BIIB-9-621 (antibody, V domains shown) VH: QLQLQESGPGLVKPSETLSLTCTVSGGSISSSSYYWGWIRQPPGKGLEWIGSIYYSGSTYYNPSLKSRVTISVDTSKNQFSLKLSSVTAADTAVYYCARDGSISGSRFDYWGQGTLVTVSS VL: not shown | 16.7
BIIB-9-440 (antibody, V domains shown) VH: QLQLQESGPGLVKPSETLSLTCTVSGGSISSSDYYWGWIRQPPGKGLEWIGSIYYSGSTYYNPSLKSRVTISVDTSKNQFSLKLSSVTAADTAVYYCARSPRHKVRGPNWFDPWGQGTLVTVSS VL: not shown | 39.9
BIIB-9-480 (antibody, V domains shown) VH: QVQLQESGPGLVKPSETLSLTCAVSGYSISSGYYWGWIRQPPGKGLEWIGSSYHSGSTYYNPSLKSRVTISVDTSKNQFSLKLSSVTAADTAVYYCARDQQDYGAFDIWGQGTMVTVSS VL: not shown | 7.51
